assay: soluble on expression in E. coli; label from the status in PepcDB or PDB records

Q: For “MPSMLERISKNLVKEIGSKDLTPVKYLLSATKLRQFVILRKKKDSRSSFWEQSDYVPVEFSLNDILEPSSSVLETVVTGPFHFSDIMIQKHKADMGVNVGIEVSVSGEASVDHGCSLEFQIVTIPSPNLEDFQKRKLLDPEPSFLKECRRRGDNLYVVTEAVELINNTVLYDSSSVNILGKIALWITYGKGQGQGESLRVKKKALTLQKGMVMAYKRKQLVIKEKAILISDDDEQRTFQDEYEISEMVGYCAARSEGLLPSFHTISPTLFNASSNDMKLKPELFLTQQFLSGHLPKYEQVHILPVGRIEEPFWQNFKHLQEEVFQKIKTLAQLSKDVQDVMFYSILAMLRDRGALQDLMNMLELDSSGHLDGPGGAILKKLQQDSNHAWFNPKDPILYLLEAIMVLSDFQHDLLACSMEKRILLQQQELVRSILEPNFRYPWSIPFTLKPELLAPLQSEGLAITYGLLEECGLRTELDNPRSTWDVEAKMPLSALYGTLSLLQQLAEA”, which “soluble on expression in E. coli” value is on record?
A: soluble

Q: Which “soluble on expression in E. coli” value does the source give for “MNVCRLYGEELQKSQSNTFEDYFNRSEVTYRDGGEERTLSVLYLRHFEAALLDWLPYESDPLFTANGRDIHLRDIIALVCLWKNPAYRQRKRVYIHDEEELRRYFAEVDAKTLQALVSEWAETGECRLPERSA” here?
A: not soluble

Q: Which “soluble on expression in E. coli” value does the source give for “MSLVRQLIGRTLSGTVTMCAGPFRSVLNMLHRPQWETAMIAPLPAVDMRVICAGHVNWDVTLHVDHLPKPDGEGRITDRSQSSGGSASNAAVALAGLDADPLVLGSVGRDDHGTMARRELAATGVETLLIESDEATAVKYLIVDENGDVAVLGNDGANEAFNASDLPAETLAEADHLHLTGQNPTTAATLARDAAAADVPVSFDPGRRLPYRDYSSVLSHAEILFCNDREADHARDSGLFETVPTVVVKHGDCGATAHIGDQTVTNAGYPIESVDTAGAGDAFAAGYLLASAQETDPERALAVANACGALAAQSSGARTTLDWESVWELVDSGQEGHHHHHH” here?
A: soluble

Q: Which “soluble on expression in E. coli” value does the source give for “MGSDKIHHHHHHMYSSEKMQWFAMRATYRRGMQIKGLLDQKGINSFIPMRYEIHLKNGHRRRELVPVIRDIVFVHTTQSELQRIKYGIPYFQYMMDIRNGEKIIVPDEQMRRFIAVAGTYDEQIIFFSPDEVNLRKGTKVRITGGQFEGYEGVFVKVKGSRDRRVVISLQGILALAMATLSPDLIEVIEEPKKRNHD” here?
A: not soluble

Q: Which “soluble on expression in E. coli” value does the source give for “MKWILLPILFVTLAVSGTALAQPSPTETVKKTVDDVIKIVSDKELKKPQNEKRRRQEIKRAIGTVFDSAEMAQRAMARHWRDRNAAEKKEFVDLFENLLENSYAGKIESYNQEKVVYLKEAIDGDYAEVRSKIVTARRDEYSLDYRLMLKGGKWVVYDIVIEGVSLVSNYRTQFNKIITNQGYAELVKKLRSKNKEISMPLEHHHHHH” here?
A: soluble

Q: For “MKKIEVDLVRTKVYNLLKEMILNHELKLGEKLNVRELSEKLGISFTPVRDALLQLATEGLVKVVPRVGFFVTDVDEKFIRETIETRIMMEVFCLENYFDKIAGSEELLEIKGEIDDVEKSAKREIFDDSDERLHKLFIRASGNELIISLYEKIWDRIDLVRHLNERYVVSNREHKELIERIISGDKEGAIEKLKEHLKNVEAETIKNLYTYERS”, which “soluble on expression in E. coli” value is on record?
A: soluble

Q: For “MRQIETQQLEAETSFTERIAEDRVKCAAQRESLERQLQDLTATDNKLSEQKRDWEERQEKAYDELMSYLENEDVDSAGTQFGDHFNSLIKSMNNLSHDSMNGQFNSLKNNLDELNIEKKQLEVAIADQSSTISEMIPSLRPTCGATYKERNTLRIIFHYQVAKLRSEYQKCRLQEEALKARLST”, which “soluble on expression in E. coli” value is on record?
A: not soluble

Q: For “MVKEFNTQTELSVRLEALWAVLSKDFITVVPKVLPHIVKDVQLIEGDGGVGTILIFNFLPEVSPSYQREEITEFDESSHEIGLQVIEGGYLSQGLSYYKTTFKLSEIEEDKTLVNVKISYDHDSDIEEKVTPTKTSQSTLMYLRRLERYLSNGSA”, which “soluble on expression in E. coli” value is on record?
A: soluble

Q: With “MAHHHHHHMSRKRVRAEDIHYWLLKSEPHKFSIDDLAKQKTSPWDGVRNYAARNNMRAMSVGDKVLFYHSNTKEPGVAGLAEVVRLAYDDFTALDKTSEYFDPKATKEKNPWKMVDVKFVARWDTVLTLHELKSRRELQKMALFTQRRLSVQPVSASEYAYILRMNEEQQRK” as the sequence, how does the “soluble on expression in E. coli” value read?
A: soluble

Q: For “LPAYEKQVEVVEKDLEQVHICLGTKAFPQNHPRRFEVYLVNTLLGGSMSSRLFQEIRERLGLAYSVYSYVVSHTDAGSLVVYVGTSPEKLDDVLDITVAELKRLKTELVPLPELESAKEQIKGSIYLSLESSDNRMTKLAKNEIYFGRYIPIHELADGFDSVTSRGILELAGEIFDERYLTLALMGKIDSAAFDVSRLAL”, which “soluble on expression in E. coli” value is on record?
A: not soluble

Q: For “MAHHHHHHMCREPYLLLSMHRLLLAAYWPDSDRLHCSEREWPLTEHSGAVPFMVESANGRVLPWCPWRDNSVAELLAVVRGMMELAGMKLGIVVGDRLVPD”, which “soluble on expression in E. coli” value is on record?
A: soluble

Q: Which “soluble on expression in E. coli” value does the source give for “MSIATTPLHTALSLPQIQSFAASDMAAIDTLIHDRLTSDIVLINQIADHIICSGGKRLRPMLTMLAGHAIGPTGPHHHQLAAIIEFIHTATLLHDDVVDGSELRRSRSTANALWGNAPSVLVGDFLYSRSFQLMTELANLEVMQILAETTNRISEGEVLQLLHVHNPDTDETTYLSVIERKTAILFAAAAQLGALASHADTQTQTRMYEYGMQLGYAFQITDDVLDYTANNSQLGKNLGDDLAEGKATLPVIHAMTHSDAATCERLRMIISKGDSDAMPEVLNAIRTTGSLDYSRQRASAYAATAERALDGLPETEAVAALRGLARYAVQRTY” here?
A: not soluble

Q: Which “soluble on expression in E. coli” value does the source give for “AIAFRSVLVEAAVRVESPLLAHRLEDALLHACKQRFCSRILPSLGVCLTALRICKLVDGAGKQLALEIWPVEVSGGGLRARVHVELLLWSPLPHELAFAQVRSCSRFGIRLSILNGFDYAFVPPGSMPEPCTYHEEQRCWSWRFNEDDFVIGEGDWVRVLIERVEYATDSAMATFDSPGTVGSGPPLHILPPPVPVGRTVMETDQANATPGAHPEHAPPLETEPPEFWETPSILPLRVWARLDAPGLGPIDWWS” here?
A: soluble

Q: With “PLGSDHWGKGDMSDEDDENEFFDAPEIITMPENLGHKRTGSHHHHHH” as the sequence, how does the “soluble on expression in E. coli” value read?
A: soluble

Q: With “MRKGGKGYFLTIRRDYVTVSYYLKYVKDIPLEFREIIDIFNNHKFEQYTQEQINKYTYTCNVRKIEDIDKYDEKNPTKFHEYTRGEACRCQTYNYFKDDEFIKRAKLKCIYYNMLFTESATVYSRHCPIIDLMHFAVYDIEYPPIFNTIVNITIEEYYYNDVSSVLNNKSDLVTKEKKYQLNDTITEIRDDYFDLWLFLKGETHGKRTLVNLSNDYIVIPSSPINNRDVIASDITRNCGLSQNSPLLKGCNYSSICNIMHPCLRKAMMLPKYMFDLSGKTCGKLGVSLNT” as the sequence, how does the “soluble on expression in E. coli” value read?
A: not soluble

Q: With “MGAFFVGVIWHFPVLAFCPLPDKPQWVAVRQVVDGDTLRLVDGRSVRLIGINAPEMGRKGRTSEPYAEAARRRLQALVKANDDRVGLVPGVEGKDKYGRTLAHIYSRNGDNLEAQLLSEGLGYRVAIAPNVRLSGCQQLAEQAARQAGVGLWRHSPVVAASDVRQSGFAVVRGRIEGIERNRGGVWLTLGSTLVLQVPARLQRNFPASFFDNLKGRQVEARGWVLDRSRRGGLKPGQRRWVLPLTDPSMLERISGLEHHHHHH” as the sequence, how does the “soluble on expression in E. coli” value read?
A: not soluble

Q: With “MSSSLQSNRQSLNRKVAVMGYPHVGKSALVLRFTQNIFPERYESTIEDQHSKHIAAFHRDYHLRVTDTAGQQEYTVFPRSCSLDINGFILVYAIDDRKSFEMCSNIYEKIVRTYGDTSIPIVIVGNKTDLSTQRVVRAEEGEELARQWDAKFVEITARESNRVHEVFELLLREIEISRGNLSPTERPNGNSPKRNPFKDDGKPCSIS” as the sequence, how does the “soluble on expression in E. coli” value read?
A: not soluble

Q: Which “soluble on expression in E. coli” value does the source give for “MGSDKIHHHHHHMDAPSRSHLASPILVANYRSLPSFMYRDSLPEAAVSPQLLALNTRLLETLEQDLAWFNSSDALEQLSGKTYYGSNLPFALAYSGHQFGGWSPVLGDGRAHVLGQLKTAADELIDVQLKGSGATPFSRGGDGRATLGAVIREYLLSEAMAGLNISTTGSLAVIATGEDVWRNGAYPGAILVRTAKSHLRVGSFQYAAVHQGPEAVKTLADFALAQYYPELSHDENPYQALLAQVIKGQAELVAQWMLVGFIHGVMNTDNSSITGETIDYGPCAFMDEFNPNKVFSSIDSQGRYAWGNQGAIAQWNMARLGETLLPLLDSDEAKALEIAQAQLGDFNRLFAEHFYQGMARKLSLDASDPELIPFVDSTLQLMTNTRVDFCQFFNALTEYHSTHREQDAGLVALFSTEAFPSLSSTPAQLLQDWLSQWQAKACDSQAALAAMIKANPKFIARNHKVEAAISAAEQNNDYSLFLDMARVLANPYVLAEQDKHYQDAPTPDQRVKQTFCGT” here?
A: not soluble

Q: Which “soluble on expression in E. coli” value does the source give for “MGSDKIHHHHHHMKSYVLTVSCKSTRGIVAAITGYLAEKGCYISDSSQFDDFQTGLFFMRLTFISQDGAKLEELREGFEPVIKRFEMMMEIRDSEERMKVLLMVSRFGHCLNDLLYRWKIGALPIDIVGVVSNHFDYQKVVVNHDIPFHHIKVTKENKPKAEAQLMDVVEQTGAELIVLARYMQVLSDALCKKMSGKIINIHHSFLPSFKGANPYKQAYERGVKLIGATAHYVTADLDEGPIIEQDIARITHAQSAEDYVSIGRDVESQVLARAVHAHIHHRCFINGNRVVVFPPSPGSYASERMG” here?
A: not soluble

Q: Which “soluble on expression in E. coli” value does the source give for “GSHMFMPSDRSTERCETVLEGETISCFVVGGEKRLCLPQILNSVLRDFSLQQINAVCDELHIYCSRCTADQLEILKVMGILPFSAPSCGLITKTDAERLCNALLYG” here?
A: soluble

Q: Which “soluble on expression in E. coli” value does the source give for “MLETDLEARMQILRESGFQESQGDDDTFAQRAEWFYQGRPLLLSLCLDLYNGYVTLLGRSSHQTRLKPTTSLPNQLLQDDDDCISDIDSVSEVSSEVESTLSFQQMKDPTAVSEKVDELVSQLVTASLDKEILKHELLHKDQQFHEASKTIELLKKFVMLLEMEKEVAVEENANLGYKLTSLLEENRELATEALFMKNEAVGLARCVLKMRDDHFHKVCILQNRIYSLQASRNSEPVSDKVSYGCFGLDKHKTKKKKENKTEEKKPGFKWLKKLNTINLFTKCSLNPSAAAPSCCTFDLPY” here?
A: not soluble

Q: For “DLYFNPRFLADDPQAVADLSRFENGQELPPGTYRVDIYLNNGYMATRDVTFNTGDSEQGIVPCLTRAQLASMGLNTASVAGMNLLADDACVPLTTMVQDATAHLDVGQQRLNLTIPQAFMSNRAR”, which “soluble on expression in E. coli” value is on record?
A: soluble

Q: Which “soluble on expression in E. coli” value does the source give for “MGSDKIHHHHHHLKQLLLDIQPPAAPSLDNFVTGRNAEALFQLRRTVLEHDDARFIYLWGETGCGKTHLIQACNALASASGLDMICVDDVHLLSNDDQVALFDLYNQLRESGGRLIVSGLAAPSQMGLRDDLATRLAWGLSYQLHPLSDEEKTQALKNHAEARGMKLPDEVLDYCLRHLRRDMPSLIATIDALDEWSLISKRAVTLPLLKQLLQTST” here?
A: not soluble

Q: For “MALDRLREALGEALFGQEEVIEALLAVLLARGHALLEGMPGLGKTLLAESLARASGLAYKRIQFTPDLLPQDLTGSEVYREGRFVFVPGPIFAQVVLADEINRAPPKVQSALLEAMQERAVTAGGVRHPLPEPFFVIATQNPLELEGTYPLPEAQLDRFTAKIPFRPPRREVWLRILTEEPKAPEPVEVDLLKAQEEAKEVRVAKEALEAITHVAFLTQEDQRLRMGLSPRGAKAWLSLARALAYLRGKPFVDWKELKDAAFLALPHRLFLTEEALYAGESAEGVLKEALRKGGIPLEHHHHHH”, which “soluble on expression in E. coli” value is on record?
A: soluble

Q: For “MSLKKITMIQTQKKVGRFNIYINNKYAFPVSESILIKYRLHKGQELDENLIEEIKLADDISKGYNAALNYLSYQLRTRKEVEDKLRSLDIHEDYISEIINKLIDLDLINDKNYAESYVRTMMNTSDKGPKVIKLNLSKKGIDDNIAEDALILYTDKLQVEKGVTLAEKLANRYSHDSYRNKQNKIKQSLLTKGFSYDIIDTIIQELDLIFDDEGHHHHHH”, which “soluble on expression in E. coli” value is on record?
A: soluble

Q: With “SLTRPNTDYSCGGFLSQPSGDFSSPFYPGNYPNNAKCVWDIEVQNNYRVTVIFRDVQMEGGCNYDYIEVFDGPYRSSPLIARVCDGARGSFTSSSNFMSIRFISDHSITRRGFRAEYYSSPSN” as the sequence, how does the “soluble on expression in E. coli” value read?
A: soluble

From the DeepSol protein solubility set
